{"source": "patent US20250145716A1", "about": "(RAKUTEN MEDICAL, published 2025)", "binders": {"B1": {"name": "1P9 (antibody, V domains shown)", "VH": "EVQLVESGGGLVQPGGSLRLSCAASGFTFSTYWMSWVRQAPGKGLEWVANIKQDGGERYYVDSVKGRFTISRDNAKSSLYLQMNSLRAEDTALYYCARLRLYSDYEDYWGQGTLVTVSS", "VL": "DIQMTQSPSSVSASVGDRVTITCRASQGISSWLAWYQQKPGKAPKLLIYSVSSLQSGVPSRFSGSGSGTDFTLTISSLQPEDSATYYCQQANSLPPTFGGGTKVEIK", "notes": "Recombinant full-length human antibody expressed in CHO K1 GS KO cells, with wild-type human Fc; also called anti-PD-L1 antibody 1P9; Unconj; 1P9"}}, "key": {"[1]": {"target": "T1, human B7-1/CD80 (RD Systems 9050-B1) (human, UniProt P33681 35-242)", "T1 sequence (looked up)": "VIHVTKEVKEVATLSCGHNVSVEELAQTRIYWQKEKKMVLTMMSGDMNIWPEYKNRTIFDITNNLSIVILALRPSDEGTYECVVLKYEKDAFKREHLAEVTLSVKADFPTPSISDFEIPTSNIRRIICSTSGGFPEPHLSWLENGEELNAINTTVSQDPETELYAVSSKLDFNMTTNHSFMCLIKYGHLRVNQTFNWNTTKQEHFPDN", "assay": "ELISA, plate-coated human B7-1/CD80 (1 µg/mL), OD 450 nm, B7 ligand specificity panel", "description": "(§1) Hybridoma supernatants were tested for binding to huPD-L1, cyPD-L1, and muPD-L1 by ELISA. Briefly, 30 μL 6xHis-tagged huPD-L1, cyPD-L1, or muPD-L1 (1 μg/mL in PBS) were immobilized in wells of a 96-well assay plate overnight at 4° C. After washing and blocking steps, 30 μL of antibody supernatant were added to the plate and incubated at room temperature for 1 hr. Bound human antibody was detected using horseradish peroxidase (HRP)-conjugated goat anti-human Fc (Invitrogen Cat. No. 109-035-097; diluted 1:5000) or goat anti-mouse Fc HRP (Invitrogen Cat. No. 115-035-071) as a control. Bound antibody was detected with 1-Step Ultra™ TMB-ELISA Substrate (ThermoFisher Scientific Cat. No. 34029). When the reaction was complete the reaction was stopped, and the plate was read at 450 nm.\n(§2) Briefly, wells of a 96-well plate (Corning 3690) were incubated with 30 μL human PD-L1 (RD Systems 9049-B7), human PD-L2 (RD Systems 9075-PL), human B7-1/CD80 (RD Systems 9050-B1), human B7-2/CD86 (RD Systems 9090-B2), human B7-H2 (RD Systems 8206-B7), or human B7-H3 (RD Systems 1949-B3), at a concentration of 1 μg/mL in PBS, overnight at 4C, to coat the wells with ligand. After washing and blocking steps, 30 μL of antibody at 8 concentrations ranging from 1 ng/mL to 3 mg/mL were added to the plate and incubated at room temperature for 1 hr. Bound human antibody was detected as described above."}, "6xHis-tagged huPD-L1": {"target": "T2, 6xHis-tagged huPD-L1 (human, UniProt Q9NZQ7 19-238)", "T2 construct": "also called human PD-L1 (RD Systems 9049-B7); extracellular domain of human PD-L1 fused to a His tag; not shown: 6xHis tag", "T2 sequence (Q9NZQ7 19-238)": "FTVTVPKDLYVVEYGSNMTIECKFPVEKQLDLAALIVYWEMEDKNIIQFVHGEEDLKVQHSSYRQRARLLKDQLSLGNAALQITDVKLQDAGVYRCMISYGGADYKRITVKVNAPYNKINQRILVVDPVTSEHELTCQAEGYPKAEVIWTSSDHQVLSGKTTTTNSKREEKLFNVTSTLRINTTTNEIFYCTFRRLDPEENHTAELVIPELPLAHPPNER", "assay": "ELISA, plate-coated human PD-L1 (1 µg/mL), OD 450 nm, B7 ligand specificity panel", "description": "as §1, §2"}, "[2]": {"target": "T3, PD-L1-His (Acro Cat PDL-H5229) (human, UniProt Q9NZQ7 19-238)", "T3 construct": "also called human PD-L1 (SPR analyte); not shown: His tag", "T3 sequence (Q9NZQ7 19-238 limits assumed)": "as the sequence (Q9NZQ7 19-238) above", "assay": "SPR (Biacore 4000), antibody captured on anti-human CM4 chip, PD-L1-His analyte, 37° C.", "description": "(§3) The binding affinities of the generated antibodies to human PD-L1 were determined by surface plasmon resonance. […] PD-L1-His (Acro Cat PDL-H5229) was tested for binding in a 3-fold titration series up to 100 nM. Data were collected in HBS-P (pH 7.4) at 37° C. and 25° C."}, "[3]": {"target": "T4, human PD-L1 expressed on cells (human, UniProt Q9NZQ7 19-290)", "T4 construct": "whole, on cells; One entry covers all human PD-L1-bearing cells; also called huPD-L1 on CHO cells (CHO-hPD-L1); PD-L1 on A431 cells", "T4 sequence (Q9NZQ7 19-290)": "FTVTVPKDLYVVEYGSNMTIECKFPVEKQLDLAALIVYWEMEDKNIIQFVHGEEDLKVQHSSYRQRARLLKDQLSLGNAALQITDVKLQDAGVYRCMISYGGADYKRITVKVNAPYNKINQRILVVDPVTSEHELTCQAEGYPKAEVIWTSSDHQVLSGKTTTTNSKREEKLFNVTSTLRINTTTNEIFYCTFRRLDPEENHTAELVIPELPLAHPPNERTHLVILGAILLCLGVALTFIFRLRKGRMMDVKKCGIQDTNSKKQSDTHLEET", "assay": "flow cytometry, PD-L1-expressing CHO cells, MFI (FITC)", "description": "Wild-type (wt) Chinese hamster ovary (CHO) cells (ATCC) and CHO cells engineered to express huPD-L1 (BPS Bioscience) were seeded at 200,000 cells in 50 μL FACS buffer (PBS containing 1% FBS and 5 mM EDTA) per well of a 96-well plate. Cell viability was assessed by adding 50 μL 2×Zombie Violet (BioLegend). Dead cell controls were also prepared and 2×Zombie violet was added. After incubating 20-30 minutes at room temperature, protected from light, 150 μL FACS buffer were added to each well. The plates were centrifuged, and the supernatant was aspirated. […] The plates were incubated 30 minutes on ice, protected from light. 150 μL FACS buffer were then added to each well and the plate was centrifuged. The supernatant was removed and the cells were washed three times in 200 μL FACS buffer. […] The cells were incubated 30 minutes on ice, protected from light. 150 μL FACS buffer were then added to each well and the plate was centrifuged. Supernatant was removed and the cells were washed twice with 200 μL FACS buffer. The cells were then resuspended in FACS buffer and analyzed by CytoFLEX using the appropriate channels. After gating for whole, single, live cells, the MFI in the APC channel (or FITC channel for human control samples) was normalized to the signal from hybridoma media alone (or isotype control for human control). MFI fold over media alone was determined for each clone supernatant tested."}, "[4]": {"target": "T3, PD-L1-His (Acro Cat PDL-H5229)", "assay": "SPR (Biacore 4000), antibody captured on anti-human CM4 chip, PD-L1-His analyte, 25° C.", "description": "as §3"}, "[5]": {"target": "T4, human PD-L1 expressed on cells", "assay": "cell-based or functional assay"}, "[6]": {"target": "T5, human B7-2/CD86 (RD Systems 9090-B2) (human, UniProt P42081 24-247, limits assumed)", "T5 sequence (looked up)": "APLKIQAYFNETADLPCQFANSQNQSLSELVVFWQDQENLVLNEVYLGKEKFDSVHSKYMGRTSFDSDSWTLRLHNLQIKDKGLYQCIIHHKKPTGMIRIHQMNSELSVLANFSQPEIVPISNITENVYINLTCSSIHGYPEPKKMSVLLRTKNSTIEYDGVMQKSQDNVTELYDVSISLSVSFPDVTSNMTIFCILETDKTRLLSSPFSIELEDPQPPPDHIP", "assay": "ELISA, plate-coated human B7-2/CD86 (1 µg/mL), OD 450 nm, B7 ligand specificity panel", "description": "as §1, §2"}}, "data": [{"binder": "B1", "values": [{"measurement": "EC50", "setting": "[1]", "value": 5.31, "unit": "µg/mL"}, {"measurement": "EC50", "setting": "6xHis-tagged huPD-L1", "value": 0.0953, "unit": "µg/mL"}, {"measurement": "Kd", "setting": "[2]", "value": 1.1, "unit": "nM"}, {"measurement": "koff", "setting": "[2]", "value": 0.00037, "unit": "s⁻¹"}, {"measurement": "kon", "setting": "[2]", "value": 330000, "unit": "M⁻¹ s⁻¹"}, {"measurement": "EC50", "setting": "[3]", "value": 0.0199, "unit": "µg/mL"}, {"measurement": "Kd", "setting": "[4]", "value": 0.27, "unit": "nM"}, {"measurement": "koff", "setting": "[4]", "value": "5.1e-05", "unit": "s⁻¹"}, {"measurement": "kon", "setting": "[4]", "value": 190000, "unit": "M⁻¹ s⁻¹"}, {"measurement": "EC50 of luminescence (RLU), PD-1:PD-L1 Blockade Bioassay (PD-L1 aAPC/CHO-K1 cells with PD-1 Effector Jurkat NFAT-luciferase cells)", "setting": "[5]", "value": 0.067, "unit": "µg/mL"}, {"measurement": "EC50", "setting": "[6]", "value": 1.14, "unit": "µg/mL"}]}]}
